Experimental data as given in the RNAGym collection of RNA variant scans (doi:10.1073/pnas.2313332121).
This sample holds only a part of the variants without activity.

B1: TPR 5TU (parent)
chain: GGAUCUUCUCGAUCUAACAAAAAAGACAAAUCUGCCACAAAGCUUGAGAGCAUCUUCGGAUGCAGAGGCGGCAGCCUUCGGUGGCGCGAUAGCGCCAACGUUCUCAACUAUGACACGCAAAACGCGUGCUCCGUUGAAUGGAGUUUAUCAUG

Variants of: B1
Test: polymerase ribozyme fitness, log enrichment relative to wild type (log ratio); higher = more active; in vitro selection for triplet polymerase activity
Outline: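 Frozen incubation at −7 °C formed the core of a single, triplicate in vitro selection round applied to PCR-built, transcribed mutant libraries of each subunit of a heterodimeric triplet polymerase ribozyme. Extended constructs were gel-excised, captured with streptavidin beads and amplified by RT-PCR, and input and output libraries were Illumina-sequenced with a filter of ≥10 input reads and ≥1 read per output. Fitness is the logarithm of genotype enrichment relative to wild-type enrichment, with inverse-variance-weighted replicate averaging, and the logarithm is base 2.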

Going from U4G C99U to U6A C108U U134C, the “polymerase ribozyme fitness (log ratio)” value falls from -0.868 to -3.33.

Compared with C5G A52C C85U, C5G A20U U33G A39C U55G C57A A91G A138C is lower in “polymerase ribozyme fitness (log ratio)” value: -2.14 for the first, ≤ -4.2 for the second.

Compared with C5A C14G, C5U G62C G88C is lower in “polymerase ribozyme fitness (log ratio)” value: -0.996 for the first, ≤ -4.2 for the second.

Compared with U4A A66C A89U C93A C125G G143A, C5A C57A C76U G81A G92C C132U is higher in “polymerase ribozyme fitness (log ratio)” value: ≤ -4.2 for the first, -2.21 for the second.

First: U4G A23U G68A U127A
Second: C5A C10G C85A C118G
The “polymerase ribozyme fitness (log ratio)” value of the first is lower: ≤ -4.2 for the first, -3.84 for the second.

C5U U31C A37U C76G U109C U135C and C5G A17U G74A A91G G141U cannot be ordered by “polymerase ribozyme fitness (log ratio)” value: ≤ -4.2 for the first, ≤ -4.2 for the second.

U6A C10G C75G U78C C96G A97G U102G and C5A A29U A52C G74A A97G cannot be ordered by “polymerase ribozyme fitness (log ratio)” value: ≤ -4.2 for the first, ≤ -4.2 for the second.

C5A U6G A28U A52C G84C A110G and U4G C8G A19G A49U U53C A73G G83A A98G A113C A115U cannot be ordered by “polymerase ribozyme fitness (log ratio)” value: ≤ -4.2 for the first, ≤ -4.2 for the second.

U4C C8U A22U G50U C54U A107U C116G and C5G A17G U61A G67A C93A C95U G140U cannot be ordered by “polymerase ribozyme fitness (log ratio)” value: ≤ -4.2 for the first, ≤ -4.2 for the second.

Going from U4C G58A C103A G124A to U6A C125G, the “polymerase ribozyme fitness (log ratio)” value rises from -3.54 to -0.431.

C5A A20U A47U G74C G117A G126U and C5A A24U C36U G86A C87A U90G C93A cannot be ordered by “polymerase ribozyme fitness (log ratio)” value: ≤ -4.2 for the first, ≤ -4.2 for the second.

Compared with C5U U45A, U4C C75A C85G C99G U145G A147U is lower in “polymerase ribozyme fitness (log ratio)” value: -2.1 for the first, ≤ -4.2 for the second.

C5G C14A G48U U53A G74A G80C U82G C96G C118G G133U and C5G A52C C76G G81A A91U cannot be ordered by “polymerase ribozyme fitness (log ratio)” value: ≤ -4.2 for the first, ≤ -4.2 for the second.

Going from U4A C18G A19U U31A U135C to C5A C54U C75G G80C U82A C87U C99G, the “polymerase ribozyme fitness (log ratio)” value falls from -4.1 to ≤ -4.2.

C5A A26U G50A C51U A106C U139G and U6C A40U C51U A52C C99U G112C cannot be ordered by “polymerase ribozyme fitness (log ratio)” value: ≤ -4.2 for the first, ≤ -4.2 for the second.

First: U6C A21G C27A C54U G80C C87A U109C A147U
Second: U6A U45A
The “polymerase ribozyme fitness (log ratio)” value of the first is lower: ≤ -4.2 for the first, -2.51 for the second.

Compared with C5G G84A A147C, U4C C69G G141U A147U is lower in “polymerase ribozyme fitness (log ratio)” value: -0.43 for the first, -1.91 for the second.

U4G G25U G48U U55G G84C A115C U134C and U4C C32A A37G G83U A122U U151A cannot be ordered by “polymerase ribozyme fitness (log ratio)” value: ≤ -4.2 for the first, ≤ -4.2 for the second.

C5G U53A C54G U77G U82C G92C C129G U144C and C5G A37U C43U A98G A121G cannot be ordered by “polymerase ribozyme fitness (log ratio)” value: ≤ -4.2 for the first, ≤ -4.2 for the second.

Compared with C5U U139G, U6A C75U C93G C131G is lower in “polymerase ribozyme fitness (log ratio)” value: 0.221 for the first, ≤ -4.2 for the second.

U6A U9A G92C C114A C118U C123G and C5A G68C G80C C85G A138G cannot be ordered by “polymerase ribozyme fitness (log ratio)” value: ≤ -4.2 for the first, ≤ -4.2 for the second.

First: C5A C76U C93A
Second: C5G C51A
The “polymerase ribozyme fitness (log ratio)” value of the first is lower: -1.5 for the first, -1.01 for the second.

Going from C5A A52U G83A to U4G C36A U55A U61A C76U C87U, the “polymerase ribozyme fitness (log ratio)” value falls from -3.03 to ≤ -4.2.

Compared with C5G G152C, U4A C57G G83A is higher in “polymerase ribozyme fitness (log ratio)” value: -2.87 for the first, -1.23 for the second.

Compared with U6A A17C A52U G84U A89C G141A, C5G G84A C96A is higher in “polymerase ribozyme fitness (log ratio)” value: -3.87 for the first, -1.4 for the second.

First: C5G C10U C57U C95U
Second: U4A G25U C54U G92U G124A
The “polymerase ribozyme fitness (log ratio)” value of the first is higher: -2.04 for the first, -2.53 for the second.

U4C C87A A89U C129G and U6A A22U C27A C54A C57A C76U U78C C87U G128C A137G G141C cannot be ordered by “polymerase ribozyme fitness (log ratio)” value: ≤ -4.2 for the first, ≤ -4.2 for the second.

U6A A20C A49U A52C C79U C93A C118G and C5A C35A C38U G74U C87A U148A cannot be ordered by “polymerase ribozyme fitness (log ratio)” value: ≤ -4.2 for the first, ≤ -4.2 for the second.

Compared with C5U C18U C85A, C5U U6A C57U G67C G71A U82G C87G U104A U139G A142G is lower in “polymerase ribozyme fitness (log ratio)” value: -0.0024 for the first, ≤ -4.2 for the second.

U4A A60U A97C U109A and C5G G50A C87U are within 0.2 log units of each other in “polymerase ribozyme fitness (log ratio)” value: -3 for the first, -2.86 for the second.

Going from C5U C69A to U6A A64U A66G G84A, the “polymerase ribozyme fitness (log ratio)” value falls from -2.55 to ≤ -4.2.

C5G U44A G59A A121C A122G and U4A U6G G67C U82A U130G G143C cannot be ordered by “polymerase ribozyme fitness (log ratio)” value: ≤ -4.2 for the first, ≤ -4.2 for the second.

C5A U31C C36A G62C A66G C85G U104A and U6A C18U A49C C79A A91G U101C C103A cannot be ordered by “polymerase ribozyme fitness (log ratio)” value: ≤ -4.2 for the first, ≤ -4.2 for the second.

U6A C35U C95G G100A and U6A U9G C14G G83C G112U G136C cannot be ordered by “polymerase ribozyme fitness (log ratio)” value: ≤ -4.2 for the first, ≤ -4.2 for the second.

First: C5G G11U A17U A39U C57G A73G C79U A138G G141C U144G
Second: U6A A21U U55A
The “polymerase ribozyme fitness (log ratio)” value of the first is lower: ≤ -4.2 for the first, -0.47 for the second.

First: C5G G86U
Second: U4G A22U U148C
The “polymerase ribozyme fitness (log ratio)” value of the first is higher: -2.77 for the first, -3.08 for the second.

U6A A22C A39U U44A G70A C99A and U4G C14G A21U A30U C93G C131U G141A cannot be ordered by “polymerase ribozyme fitness (log ratio)” value: ≤ -4.2 for the first, ≤ -4.2 for the second.

Going from C5U C51A G117C to U6C A21U C85U, the “polymerase ribozyme fitness (log ratio)” value rises from -2.16 to -0.501.

First: C5G G48A U61A C99G C132G G133U A142C
Second: C5U C18G G59A C93U C132U
The “polymerase ribozyme fitness (log ratio)” value of the first is lower: ≤ -4.2 for the first, -2.33 for the second.

C5G C76U G84U A113U A122U and U4A U6A A40U G46C C96A C118A are within 0.2 log units of each other in “polymerase ribozyme fitness (log ratio)” value: -4 for the first, -3.94 for the second.

U4G U61A G88A and U4A C8A C43A A64U C93A U146C cannot be ordered by “polymerase ribozyme fitness (log ratio)” value: ≤ -4.2 for the first, ≤ -4.2 for the second.

With U6A C10A C27G G46C C69A C93U G94C A97C the “polymerase ribozyme fitness (log ratio)” value was ≤ -4.2.
